Reference: the supplement of paper PMC10724198
± gives the standard deviation of the averaged measurements.

Tested on: Saccharomyces cerevisiae
Test: protein stability index of tFT-peptide fusion (C-terminal peptide) (PSI (0-1 scale)); higher = more stable (slower turnover)
Conditions: genetic background: wild type; temperature: 30 C
Method: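 Multiplexed protein stability (MPS) profiling in S. cerevisiae. Random 12-aa peptides (tFT-X12 library) are fused to the C-terminus of a sfGFP-mCherry tandem fluorescent timer, after mCherry and a GGGS linker. Cells are FACS-sorted into 8 mCherry/sfGFP bins and deep-sequenced. The protein stability index (PSI) is the read-weighted bin average, scaled from 0 (unstable) to 1 (stable). Only peptides with >10 reads are reported; cells were grown at 30 °C in SC-His with glucose.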
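Also: PSI is a weighted mean of sequencing reads over stability bins, variants kept only with over 10 reads, mCherry proximal and sfGFP distal, peptide attached via GGGS linker.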

Sequence | protein stability index
DKSGVYYMYSFK | 0.733 ± 0.059
YGFLFRFLSPNP | 0.6788 ± 0.0038
RHPPPRSSPPDL | 0.639 ± 0.095
SLWGFWRVVGRR | 0.594 ± 0.052
GTLWPLPCRPDG | 0.5607 ± 0.0021
LDGSQDGANRRT | 0.728 ± 0.095
LSLLPPPPPPSP | 0.688 ± 0.011
RAKLKKNKRRCK | 0.719 ± 0.0067
AEPSERSRNSPP | 0.68 ± 0.019
SVYVGAQAFCTC | 0.612 ± 0.025
PPSLPPLSPPLA | 0.736 ± 0.02
SPVLSPLSLPPH | 0.6982 ± 0.0042
PSLGLQAPTPCP | 0.679 ± 0.012
DPVGRSSHQFFL | 0.633 ± 0.026
DTLPSYPVHCRP | 0.71 ± 0.014
VQTHPFWFPTLL | 0.573 ± 0.07
RCFGPPSRLAYF | 0.683 ± 0.017
REAPPYQSHVAS | 0.676 ± 0.065
HVPFPPTVLNSP | 0.667 ± 0.088
QAGSTEERFCGG | 0.664 ± 0.02
PPRPPLSPPRSA | 0.718 ± 0.014

Sequence | protein stability index
SPSLAPSPSALL | 0.598 ± 0.018
LRENKGPAPPLL | 0.651 ± 0.0087
RVRFRVYKGGAL | 0.661 ± 0.041
MNNYWKNSTKIK | 0.737 ± 0.025
SWYQPSLREYAQ | 0.74268 ± 0.00062
GVDVSCVSPFGG | 0.705 ± 0.03
VGGEGGLGVRPR | 0.662 ± 0.033
GLVCRKGSMGVR | 0.671 ± 0.057
PPPPSSPFPHAS | 0.697 ± 0.03
CPFPPPPCPPPL | 0.665 ± 0.02
KKTKKKKNKKQE | 0.716 ± 0.081
TAPGYLGFSPFE | 0.713 ± 0.034
TFFLPPSCFYPP | 0.616 ± 0.051
QKTVRDIRIAAL | 0.591 ± 0.086
IARKCLTGGGVS | 0.696 ± 0.065
MGAVGGLCGMWA | 0.711 ± 0.029
SFPPSPLPPPPR | 0.586 ± 0.018
DETIAALYTMTD | 0.615 ± 0.014
ESYRTYNSIQVY | 0.518 ± 0.015
PDEFIAKRWNST | 0.62 ± 0.012
LGGVKATGLGQL | 0.686 ± 0.04

Sequence | protein stability index
WGGSGGREPGGS | 0.753 ± 0.066
SVYPSSPTRPPP | 0.683 ± 0.048
DGVAILPLVRIS | 0.63 ± 0.031
GGAAAWAERCGG | 0.726 ± 0.0097
RSPINSRRGGVV | 0.689 ± 0.0097
SFYSAALSCVFI | 0.737 ± 0.15
TPSPLAILSSTC | 0.6888 ± 0.0047
LCCSFGLFTLFW | 0.711 ± 0.042
CVGVEDFFFACF | 0.703 ± 0.029
RKKREKNKKRKE | 0.695 ± 0.049
QKKRKKTNQKNL | 0.621 ± 0.041
LLPALPLPLSLT | 0.64 ± 0.013
VLCCFLFGFLLV | 0.576 ± 0.011
IKNMWLACFGLY | 0.667 ± 0.027
FVGDPRRLSLPI | 0.761 ± 0.14
TPQPPPHSTYRC | 0.702 ± 0.031
PANRGPPTPFSP | 0.729 ± 0.024
DQEENKRTNGTR | 0.7096 ± 0.0034
VQDFTFLLPLAP | 0.692 ± 0.17
PLGCGLTRCVAT | 0.599 ± 0.0067
VLEVLKTGKKIM | 0.692 ± 0.032

Sequence | protein stability index
ICGLLFNLCKHD | 0.622 ± 0.045
AHPLSVSSFLSF | 0.671 ± 0.0073
AHGASLCVPPSP | 0.512 ± 0.013
ARPFLWDFCLGR | 0.681 ± 0.028
GGGGGGVDWFEI | 0.71359 ± 2.1e-05
RLPPPPPPPSTP | 0.725 ± 0.053
APSCRVPPLPPP | 0.708 ± 0.046
PPPFCPCNRLNG | 0.702 ± 0.0078
TPSDHRRLRGSN | 0.689 ± 0.045
EMGGLKACWGVG | 0.572 ± 0.022
CARAAFRGYYAQ | 0.744 ± 0.074
HPPYRHHPAPLR | 0.673 ± 0.058
RIGEHGWLTGYI | 0.736 ± 0.012
IRLPHPPLPPSP | 0.6673 ± 0.0025
PGPDMSSVSSDY | 0.6 ± 0.11
GEEGAWSRQGPP | 0.658 ± 0.035
SPSPPSLLPAPS | 0.74 ± 0.062
PAFRSDKQQSQE | 0.703 ± 0.074
